Laboratory results taken from the supplement of paper PMC10065799, “High-throughput profiling of sequence recognition by tyrosine kinases and SH2 domains using bacterial peptide display” (eLife, 2023).

Columns and labels:
EPHB2 = EPHB2 (UniProt P29323); assay: phosphorylation enrichment, bacterial display (enrichment ratio); higher = better substrate or ligand; peptides without Tyr show the background
AncSZ = assay: as above
c-Src = assay: as above
FGFR1 = FGFR1 (UniProt P11362); assay: as above
MERTK = MERTK (UniProt Q12866); assay: as above
Chain of MERTK (Q12866 whole entry, looked up): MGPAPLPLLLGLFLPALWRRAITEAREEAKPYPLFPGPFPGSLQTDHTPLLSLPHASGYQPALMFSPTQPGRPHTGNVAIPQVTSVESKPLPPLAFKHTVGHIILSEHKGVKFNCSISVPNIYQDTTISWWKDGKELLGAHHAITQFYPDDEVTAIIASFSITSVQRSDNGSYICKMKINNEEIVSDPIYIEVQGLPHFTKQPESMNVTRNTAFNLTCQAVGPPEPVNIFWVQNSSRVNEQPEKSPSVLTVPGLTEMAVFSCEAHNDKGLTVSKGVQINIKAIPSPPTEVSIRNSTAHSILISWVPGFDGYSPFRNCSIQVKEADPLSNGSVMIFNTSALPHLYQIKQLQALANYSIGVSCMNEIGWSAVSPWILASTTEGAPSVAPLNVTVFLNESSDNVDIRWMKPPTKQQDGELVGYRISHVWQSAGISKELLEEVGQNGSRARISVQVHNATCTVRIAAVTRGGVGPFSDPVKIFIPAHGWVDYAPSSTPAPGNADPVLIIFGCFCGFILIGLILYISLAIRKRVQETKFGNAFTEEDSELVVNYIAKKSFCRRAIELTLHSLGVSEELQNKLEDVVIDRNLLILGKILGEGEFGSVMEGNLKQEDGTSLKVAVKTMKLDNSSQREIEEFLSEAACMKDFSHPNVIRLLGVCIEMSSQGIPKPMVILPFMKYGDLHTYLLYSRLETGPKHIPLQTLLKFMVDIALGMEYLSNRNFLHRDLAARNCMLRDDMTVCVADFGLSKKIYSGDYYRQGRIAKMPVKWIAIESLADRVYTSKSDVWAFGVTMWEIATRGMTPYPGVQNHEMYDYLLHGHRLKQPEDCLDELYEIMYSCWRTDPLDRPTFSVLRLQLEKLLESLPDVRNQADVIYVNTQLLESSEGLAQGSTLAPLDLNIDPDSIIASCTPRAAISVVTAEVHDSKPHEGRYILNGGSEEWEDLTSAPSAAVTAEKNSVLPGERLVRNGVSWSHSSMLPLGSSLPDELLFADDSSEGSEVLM

Fer (mouse) = assay: as above
Jak2 = Jak2 (UniProt O60674); assay: as above
Chain of Jak2 (O60674 whole entry, looked up): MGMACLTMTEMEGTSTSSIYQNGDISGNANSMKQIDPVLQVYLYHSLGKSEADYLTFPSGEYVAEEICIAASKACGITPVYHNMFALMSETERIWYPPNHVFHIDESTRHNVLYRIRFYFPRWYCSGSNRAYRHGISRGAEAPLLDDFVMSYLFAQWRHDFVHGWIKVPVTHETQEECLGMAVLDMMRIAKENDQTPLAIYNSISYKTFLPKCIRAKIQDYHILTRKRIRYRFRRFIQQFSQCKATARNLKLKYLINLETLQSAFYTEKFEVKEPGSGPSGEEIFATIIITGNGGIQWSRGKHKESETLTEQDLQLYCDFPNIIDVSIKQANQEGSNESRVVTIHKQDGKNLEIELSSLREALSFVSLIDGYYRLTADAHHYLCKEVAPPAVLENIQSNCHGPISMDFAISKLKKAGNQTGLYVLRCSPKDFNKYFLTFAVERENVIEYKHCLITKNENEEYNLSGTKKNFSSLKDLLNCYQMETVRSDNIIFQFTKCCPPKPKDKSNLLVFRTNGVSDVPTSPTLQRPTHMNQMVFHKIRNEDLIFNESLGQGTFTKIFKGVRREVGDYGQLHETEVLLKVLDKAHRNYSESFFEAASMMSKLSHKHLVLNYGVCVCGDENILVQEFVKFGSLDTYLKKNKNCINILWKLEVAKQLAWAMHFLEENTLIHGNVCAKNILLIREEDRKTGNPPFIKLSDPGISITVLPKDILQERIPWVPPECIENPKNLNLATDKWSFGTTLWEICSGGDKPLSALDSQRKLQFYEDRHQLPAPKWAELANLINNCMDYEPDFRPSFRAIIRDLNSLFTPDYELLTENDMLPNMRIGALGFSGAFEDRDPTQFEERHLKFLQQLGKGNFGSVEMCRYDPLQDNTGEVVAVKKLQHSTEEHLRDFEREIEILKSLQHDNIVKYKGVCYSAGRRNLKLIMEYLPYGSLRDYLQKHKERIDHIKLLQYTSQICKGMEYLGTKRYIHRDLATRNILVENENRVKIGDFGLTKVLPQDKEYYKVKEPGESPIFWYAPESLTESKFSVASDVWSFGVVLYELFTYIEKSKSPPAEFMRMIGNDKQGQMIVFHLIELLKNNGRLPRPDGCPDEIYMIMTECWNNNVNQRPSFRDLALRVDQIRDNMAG

FGFR3 = FGFR3 (UniProt P22607); assay: as above
Chain of FGFR3 (P22607 whole entry, looked up): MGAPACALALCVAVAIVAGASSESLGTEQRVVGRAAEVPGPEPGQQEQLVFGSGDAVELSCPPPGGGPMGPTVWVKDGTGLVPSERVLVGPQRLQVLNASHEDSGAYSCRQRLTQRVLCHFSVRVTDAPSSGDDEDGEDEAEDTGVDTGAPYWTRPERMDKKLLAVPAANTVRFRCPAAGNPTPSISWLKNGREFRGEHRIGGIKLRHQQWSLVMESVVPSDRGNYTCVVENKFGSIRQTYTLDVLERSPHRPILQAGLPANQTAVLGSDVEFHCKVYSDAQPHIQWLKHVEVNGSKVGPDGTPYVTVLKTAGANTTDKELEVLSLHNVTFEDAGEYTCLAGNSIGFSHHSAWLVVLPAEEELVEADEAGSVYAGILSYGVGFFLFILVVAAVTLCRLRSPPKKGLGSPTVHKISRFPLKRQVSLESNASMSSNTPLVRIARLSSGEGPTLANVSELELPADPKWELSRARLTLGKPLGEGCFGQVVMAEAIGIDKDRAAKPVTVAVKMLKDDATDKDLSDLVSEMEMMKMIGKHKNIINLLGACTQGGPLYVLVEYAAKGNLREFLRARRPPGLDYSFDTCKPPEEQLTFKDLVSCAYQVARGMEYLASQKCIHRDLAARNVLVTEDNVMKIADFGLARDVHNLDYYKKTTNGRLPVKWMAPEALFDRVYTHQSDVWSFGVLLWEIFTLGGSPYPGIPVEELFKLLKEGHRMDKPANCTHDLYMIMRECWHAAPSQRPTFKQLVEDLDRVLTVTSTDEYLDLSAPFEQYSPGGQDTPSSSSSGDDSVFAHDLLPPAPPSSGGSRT

Hck = Hck (UniProt P08631); assay: as above
Fyn = Fyn (UniProt P06241); assay: as above
EPHB1 = EPHB1 (UniProt P54762); assay: as above
Fes = Fes (UniProt P07332); assay: as above
Chain of Fes (P07332 whole entry, looked up): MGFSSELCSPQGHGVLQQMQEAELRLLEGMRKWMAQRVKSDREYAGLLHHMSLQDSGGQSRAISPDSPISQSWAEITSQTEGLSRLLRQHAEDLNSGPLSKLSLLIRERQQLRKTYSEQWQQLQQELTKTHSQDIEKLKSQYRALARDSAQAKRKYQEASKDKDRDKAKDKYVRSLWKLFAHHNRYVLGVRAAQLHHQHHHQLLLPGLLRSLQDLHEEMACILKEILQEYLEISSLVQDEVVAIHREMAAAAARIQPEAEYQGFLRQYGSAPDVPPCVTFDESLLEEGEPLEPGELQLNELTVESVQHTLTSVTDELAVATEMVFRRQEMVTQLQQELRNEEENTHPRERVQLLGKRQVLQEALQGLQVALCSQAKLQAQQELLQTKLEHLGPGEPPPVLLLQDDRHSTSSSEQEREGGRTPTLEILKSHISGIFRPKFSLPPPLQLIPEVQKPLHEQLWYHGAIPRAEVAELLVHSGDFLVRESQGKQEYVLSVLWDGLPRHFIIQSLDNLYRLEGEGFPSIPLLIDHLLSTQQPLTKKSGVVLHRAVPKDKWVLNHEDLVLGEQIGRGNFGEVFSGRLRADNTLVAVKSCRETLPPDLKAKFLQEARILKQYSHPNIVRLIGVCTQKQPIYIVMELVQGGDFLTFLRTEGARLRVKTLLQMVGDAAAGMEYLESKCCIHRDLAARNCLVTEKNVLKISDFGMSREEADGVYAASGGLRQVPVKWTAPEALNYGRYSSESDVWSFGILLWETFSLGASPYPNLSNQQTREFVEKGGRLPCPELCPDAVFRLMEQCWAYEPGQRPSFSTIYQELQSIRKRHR

c-Abl (mouse) = assay: as above
c-Src SH2 = assay: SH2 binding enrichment of the phosphorylated peptide, bacterial display (enrichment ratio); higher = better substrate or ligand; peptides without Tyr show the background
SHP2-C SH2 = assay: as above
Grb2 SH2 = Grb2 SH2 (UniProt P62993); assay: as above
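Throughout, for SH2 binding enrichment of the phosphorylated peptide, bacterial display: peptide library displayed on the E. coli surface as eCPX fusions, selected cells deep-sequenced, score is each peptide's frequency after selection divided by its frequency in the input.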
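Throughout, for phosphorylation enrichment, bacterial display: 11-residue human phosphosite peptides and single-mutation variants displayed on the E. coli surface, counted by deep sequencing, each peptide's frequency after selection divided by its frequency in the unselected input library; frequency after pTyr selection over input frequency; kinase dosed for 20-30% of maximal phosphorylation in three min.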

Chain of EPHB2 (P29323 whole entry, looked up): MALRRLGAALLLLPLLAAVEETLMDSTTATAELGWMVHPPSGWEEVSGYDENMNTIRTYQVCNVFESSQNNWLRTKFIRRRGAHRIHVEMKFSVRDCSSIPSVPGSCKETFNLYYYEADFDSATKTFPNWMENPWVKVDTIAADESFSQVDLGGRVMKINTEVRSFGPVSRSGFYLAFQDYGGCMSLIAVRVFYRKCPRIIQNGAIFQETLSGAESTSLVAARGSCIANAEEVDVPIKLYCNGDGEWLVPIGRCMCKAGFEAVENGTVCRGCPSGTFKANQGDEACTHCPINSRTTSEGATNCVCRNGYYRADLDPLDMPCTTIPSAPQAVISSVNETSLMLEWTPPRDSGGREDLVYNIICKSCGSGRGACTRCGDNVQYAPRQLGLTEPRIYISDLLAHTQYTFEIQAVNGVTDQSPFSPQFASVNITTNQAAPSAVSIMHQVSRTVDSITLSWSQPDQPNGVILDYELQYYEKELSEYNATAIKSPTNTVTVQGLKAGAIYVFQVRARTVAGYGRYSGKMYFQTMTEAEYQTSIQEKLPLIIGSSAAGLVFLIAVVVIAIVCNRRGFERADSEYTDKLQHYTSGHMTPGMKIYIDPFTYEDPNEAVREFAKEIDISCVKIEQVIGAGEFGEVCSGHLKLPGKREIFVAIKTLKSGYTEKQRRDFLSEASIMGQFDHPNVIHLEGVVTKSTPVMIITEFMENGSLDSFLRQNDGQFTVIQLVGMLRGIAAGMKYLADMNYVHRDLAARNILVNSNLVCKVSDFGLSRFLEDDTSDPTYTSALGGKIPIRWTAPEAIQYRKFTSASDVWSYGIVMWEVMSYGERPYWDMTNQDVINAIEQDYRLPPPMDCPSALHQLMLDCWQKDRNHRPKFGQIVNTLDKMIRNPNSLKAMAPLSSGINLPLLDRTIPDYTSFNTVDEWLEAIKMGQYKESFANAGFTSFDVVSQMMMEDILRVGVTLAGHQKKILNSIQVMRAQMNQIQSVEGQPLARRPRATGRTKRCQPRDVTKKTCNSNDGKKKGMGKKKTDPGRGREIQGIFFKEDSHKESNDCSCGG

SH2 binding enrichment (c-Src SH2) | SH2 binding enrichment (SHP2-C SH2) | SH2 binding enrichment (Grb2 SH2) | Sequence | phosphorylation enrichment (EPHB2) | phosphorylation enrichment (AncSZ) | phosphorylation enrichment (c-Src) | phosphorylation enrichment (FGFR1) | phosphorylation enrichment (MERTK) | phosphorylation enrichment (Fer (mouse)) | phosphorylation enrichment (Jak2) | phosphorylation enrichment (FGFR3) | phosphorylation enrichment (Hck) | phosphorylation enrichment (Fyn) | phosphorylation enrichment (EPHB1) | phosphorylation enrichment (Fes) | phosphorylation enrichment (c-Abl (mouse))
0.445 | 0.561 | 0.977 | EARRVYGDIIH [ALDH5A1_Y175] | 0.378 | 0.608 | 0.499 | 0.426 | 0.408 | 0.477 | 0.517 | 0.447 | 0.42 | 0.514 | 0.41 | 0.707 | 0.596
0.423 | 0.811 | 0.823 | SDRNLYSKNLV [CFAP58_Y501] | 0.38 | 0.626 | 0.435 | 0.325 | 0.748 | 1.03 | 0.491 | 0.363 | 0.555 | 0.411 | 0.268 | 0.516 | 0.467
10 | 0.649 | 0.646 | YEAMEYLESKQ [BTK_Y511_C506Y] | 0.843 | 1.84 | 0.568 | 1.15 | 3.12 | 3.06 | 1.14 | 1.04 | 0.805 | 0.654 | 2.15 | 1.28 | 0.836
0.406 | 0.502 | 0.719 | FSKDNYKRVTG [PANK2_Y405_YF] | 0.412 | 0.397 | 0.369 | 0.407 | 0.383 | 0.394 | 0.409 | 0.393 | 0.396 | 0.401 | 0.409 | 0.452 | 0.416
0.475 | 0.745 | 0.725 | TSSSRYFDEPV [ARFGAP3_Y356_S355R] | 0.395 | 0.792 | 0.399 | 0.597 | 0.391 | 0.417 | 0.61 | 0.688 | 0.495 | 0.511 | 0.508 | 0.839 | 0.447
0.972 | 0.697 | 1.06 | SFVVRYNQPRV [GRIN2D_Y736_M733V_YF] | 0.517 | 1.01 | 0.377 | 0.499 | 0.366 | 0.49 | 0.794 | 0.608 | 0.515 | 0.483 | 0.559 | 1.1 | 0.663
0.427 | 0.68 | 0.796 | ERFSFYGMKAV [SLC15A2_Y61_YF] | 0.605 | 1.08 | 0.455 | 0.505 | 0.383 | 0.554 | 1.02 | 0.84 | 0.546 | 0.439 | 0.647 | 1.56 | 0.812
2 | 1.24 | 0.752 | MKMISYETLIA [DOCK10_Y1350_T1347M] | 0.566 | 0.784 | 0.421 | 0.634 | 0.485 | 0.467 | 0.888 | 0.629 | 0.581 | 0.468 | 0.659 | 0.948 | 0.65
